Target: C3 convertase complex (UniProt P01024 23-1663; P00751 260-764)
Assay: cell-based or functional assay
Throughout, for C3 convertase activity % of the control: test concentration or dose not given here.

C3 convertase complex, sequence (P01024 23-1663, chain 1 of 2): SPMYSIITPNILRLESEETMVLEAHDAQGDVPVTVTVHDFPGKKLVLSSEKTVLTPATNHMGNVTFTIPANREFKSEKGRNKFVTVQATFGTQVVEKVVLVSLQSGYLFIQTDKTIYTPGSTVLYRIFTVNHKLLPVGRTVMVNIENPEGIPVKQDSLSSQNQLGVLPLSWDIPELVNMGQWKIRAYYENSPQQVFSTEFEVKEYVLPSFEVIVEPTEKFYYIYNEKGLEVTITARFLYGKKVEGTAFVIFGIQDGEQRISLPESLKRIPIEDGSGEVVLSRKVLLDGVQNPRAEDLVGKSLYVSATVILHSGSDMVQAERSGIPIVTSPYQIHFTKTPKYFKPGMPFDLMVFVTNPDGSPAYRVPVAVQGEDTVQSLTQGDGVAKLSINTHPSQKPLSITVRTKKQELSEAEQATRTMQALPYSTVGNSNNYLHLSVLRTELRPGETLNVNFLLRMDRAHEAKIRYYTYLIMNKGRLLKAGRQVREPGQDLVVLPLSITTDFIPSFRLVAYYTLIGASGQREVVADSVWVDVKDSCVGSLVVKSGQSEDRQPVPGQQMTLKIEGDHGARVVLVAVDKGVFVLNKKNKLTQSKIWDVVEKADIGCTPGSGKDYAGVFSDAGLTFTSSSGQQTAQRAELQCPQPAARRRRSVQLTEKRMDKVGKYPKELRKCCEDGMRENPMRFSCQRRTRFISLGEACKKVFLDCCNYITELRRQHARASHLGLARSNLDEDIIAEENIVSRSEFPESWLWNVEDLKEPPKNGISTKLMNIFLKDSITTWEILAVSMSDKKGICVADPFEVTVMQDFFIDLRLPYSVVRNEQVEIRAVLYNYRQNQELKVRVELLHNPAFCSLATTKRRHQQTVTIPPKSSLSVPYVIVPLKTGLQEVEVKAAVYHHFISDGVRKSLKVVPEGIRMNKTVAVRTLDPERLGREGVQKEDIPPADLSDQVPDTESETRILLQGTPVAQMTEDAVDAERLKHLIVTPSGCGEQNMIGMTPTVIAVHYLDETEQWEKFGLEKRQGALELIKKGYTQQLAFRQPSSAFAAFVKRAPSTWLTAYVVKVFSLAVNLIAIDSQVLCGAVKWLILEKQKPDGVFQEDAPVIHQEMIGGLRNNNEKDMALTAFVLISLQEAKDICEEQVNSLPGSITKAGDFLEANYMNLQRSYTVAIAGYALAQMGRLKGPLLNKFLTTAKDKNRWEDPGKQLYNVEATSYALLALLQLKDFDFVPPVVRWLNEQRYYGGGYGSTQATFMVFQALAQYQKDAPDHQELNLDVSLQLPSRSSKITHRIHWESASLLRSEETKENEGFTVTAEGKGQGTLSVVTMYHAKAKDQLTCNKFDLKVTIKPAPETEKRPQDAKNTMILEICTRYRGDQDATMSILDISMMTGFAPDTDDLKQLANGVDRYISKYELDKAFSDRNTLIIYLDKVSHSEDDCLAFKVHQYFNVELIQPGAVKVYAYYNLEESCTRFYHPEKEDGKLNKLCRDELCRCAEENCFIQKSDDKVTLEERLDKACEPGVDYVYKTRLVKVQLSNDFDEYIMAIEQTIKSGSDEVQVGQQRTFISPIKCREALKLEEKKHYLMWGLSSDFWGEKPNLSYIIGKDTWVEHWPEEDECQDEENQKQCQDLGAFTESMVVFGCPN
C3 convertase complex, sequence (P00751 260-764, chain 2 of 2): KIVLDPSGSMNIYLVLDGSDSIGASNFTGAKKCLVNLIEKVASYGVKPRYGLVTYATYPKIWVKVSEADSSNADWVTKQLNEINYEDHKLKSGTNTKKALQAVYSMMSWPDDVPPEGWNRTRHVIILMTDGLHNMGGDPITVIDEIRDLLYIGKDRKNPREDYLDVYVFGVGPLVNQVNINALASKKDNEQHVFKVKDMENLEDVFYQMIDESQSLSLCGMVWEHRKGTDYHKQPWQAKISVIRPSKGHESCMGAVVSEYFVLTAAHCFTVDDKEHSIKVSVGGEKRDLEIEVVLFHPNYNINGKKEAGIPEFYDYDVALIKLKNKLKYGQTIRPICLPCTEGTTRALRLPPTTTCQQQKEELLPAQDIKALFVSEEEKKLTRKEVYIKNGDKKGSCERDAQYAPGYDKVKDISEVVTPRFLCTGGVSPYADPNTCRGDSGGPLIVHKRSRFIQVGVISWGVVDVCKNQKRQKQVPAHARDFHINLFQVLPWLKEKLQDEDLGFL

Binder | C3 convertase activity % of the control | C3 convertase activity IC50
pCEP4-1NT8-10CT20 (other) EDCNELPPRRNTEILTGSWSDQTYPEGTQAIYKCRPGYRSLGNVIMVCRKGEWVALNPLRKCQKRPCGHPGDTPFGTFTLTGGNVFEYGVKAVYTCNEGYQLLGEINYRECDTDGWTNDIPICEVVKCLPVTAPENGKIVSSAMEPDREYHFGQAVRFVCNSGYKIEGDEEMHCSDDGFWSKEKPKCVEISCKSPDVINGSPISQKIIYKENERFQYKCNMGYEYSERGDAVCTESGWRPLPSCEEKSCDNPYIPNGDYSPLRIKHRTGDEITYQCRNGFYPATRGNTAKCTSTGWIPAPRCTLKPCDYPDIKHGGLYHENMRRPYFPVAVGKYYSYYCDEHFETPSGSYWDHIHCTQDGWSPAVPCLRKCYFPYLENGYNQNYGRKFVQGKSIDVACHPGYALPKAQTTVTCMENGWSPTPRCIRVKTCSKSSIDIENGFISESQYTYALKEKAKYQCKLGYVTADGETSGSITCGKDGWSAQPTCIKSGASGCELPKIDVHLVPDRKKDQYKVGEVLKFSCKPGFTIVGPNSVQCYHFGLSPDLPICKEQVQSCGPPPELLNGNVKEKTKEEYGHSEVVEYYCNPRFLMKGPNKIQCVDGEWTTLPVCIVEESTCGDIPELEHGWAQLSSPPYYYGDSVEFNCSESFTMIGHRSITCIHGVWTQLPQCVAIDKLKKCKSSNLIILEEHLKNKKEFDHNSNIRYRCRGKEGWIHTVCINGRWDPEVNCSMAQIQLCPPPPQIPNSHNMTTTLNYRDGEKVSVLCQENYLIQEGEEITCKDGRWQSIPLCVEKIPCSQPPQIEHGTINSSRSSQESYAHGTKLSYTCEGGFRISEENETTCYMGKWSSPPQCEGLPCKSPPEISHGVVAHMSDSYQYGEEVTYKCFEGFGIDGPAIAKCLGEKWSHPPSCIKTDCLSLPSFENAIPMGEKKDVYKAGEQVTYTCATYYKMDGASNVTCINSRWTGRPTCRDTSCVNPPTVQNAYIVSRQMSKYPSGERVRYQCRSPYEMFGDEEVMCLNGNWTEPPQCKDSTGKCGPPPPIDNGDITSFPLSVYAPASSVEYQCQNLYQLEGNKRITCRNGQWSEPPKCLHPCVISREIMENYNIALRWTAKQKLYSRTGESVEFVCKRGYRLSSRSHTLRTTCWDGKLEYPTCAKRGGSGHHHHHH | 107 % of the control | 0.338 µg/mL
pCEP4-1NT7-13CT20 (other) EDCNELPPRRNTEILTGSWSDQTYPEGTQAIYKCRPGYRSLGNVIMVCRKGEWVALNPLRKCQKRPCGHPGDTPFGTFTLTGGNVFEYGVKAVYTCNEGYQLLGEINYRECDTDGWTNDIPICEVVKCLPVTAPENGKIVSSAMEPDREYHFGQAVRFVCNSGYKIEGDEEMHCSDDGFWSKEKPKCVEISCKSPDVINGSPISQKIIYKENERFQYKCNMGYEYSERGDAVCTESGWRPLPSCEEKSCDNPYIPNGDYSPLRIKHRTGDEITYQCRNGFYPATRGNTAKCTSTGWIPAPRCTLKPCDYPDIKHGGLYHENMRRPYFPVAVGKYYSYYCDEHFETPSGSYWDHIHCTQDGWSPAVPCLRKCYFPYLENGYNQNYGRKFVQGKSIDVACHPGYALPKAQTTVTCMENGWSPTPRCIRVKTGASGCKSSNLIILEEHLKNKKEFDHNSNIRYRCRGKEGWIHTVCINGRWDPEVNCSMAQIQLCPPPPQIPNSHNMTTTLNYRDGEKVSVLCQENYLIQEGEEITCKDGRWQSIPLCVEKIPCSQPPQIEHGTINSSRSSQESYAHGTKLSYTCEGGFRISEENETTCYMGKWSSPPQCEGLPCKSPPEISHGVVAHMSDSYQYGEEVTYKCFEGFGIDGPAIAKCLGEKWSHPPSCIKTDCLSLPSFENAIPMGEKKDVYKAGEQVTYTCATYYKMDGASNVTCINSRWTGRPTCRDTSCVNPPTVQNAYIVSRQMSKYPSGERVRYQCRSPYEMFGDEEVMCLNGNWTEPPQCKDSTGKCGPPPPIDNGDITSFPLSVYAPASSVEYQCQNLYQLEGNKRITCRNGQWSEPPKCLHPCVISREIMENYNIALRWTAKQKLYSRTGESVEFVCKRGYRLSSRSHTLRTTCWDGKLEYPTCAKRGGSGHHHHHH | 7 % of the control | 1.93 µg/mL

Reference: patent publication US20170190753A1 (LABORATOIRE FRANCAIS DU FRACTIONNEMENT ET DES …, published 2017)
